Measured values as given in doi:10.1101/060434 (bioRxiv, 2016).

Biological target: the molecule itself
Assay: electron microscopy

B1: hepatitis E virus-like particle (HEV-LP) of the HEV ORF2 capsid protein, amino acids 368-606 (p239) (domain or fragment, UniProt P33426 368-606, looked up)
chain: IALTLFNLADTLLGGLPTELISSAGGQLFYSRPVVSANGEPTVKLYTSVENAQQDKGIAIPHDIDLGESRVVIQDYDNQHEQDRPTPSPAPSRPFSVLRANDVLWLSLTAAEYDQSTYGSSTGPVYVSDSVTLVNVATGAQAVARSLDWTKVTLDGRPLSTIQQYSKTFFVLPLRGKLSFWEAGTTKAGYPYNYNTTASDQLLVENAAGHRVAISTYTTSLGAGPVSISAVAVLAPHSV
binding result: binds
